{
  "source": "paper PMC9677429",
  "about": "“The Role of Electrostatic Interactions in IFIT5-RNA Complexes Predicted by the UBDB+EPMM Method”",
  "conditions_in_all_cases": "protein: recombinant; tags: N-terminal His tag (pETG10a); label: 3'-Cy5; single strand, 12 nt",
  "key": {"[1]": {"target": "T1, IFIT5 WT (UniProt Q13325 1-482)", "T1 sequence": "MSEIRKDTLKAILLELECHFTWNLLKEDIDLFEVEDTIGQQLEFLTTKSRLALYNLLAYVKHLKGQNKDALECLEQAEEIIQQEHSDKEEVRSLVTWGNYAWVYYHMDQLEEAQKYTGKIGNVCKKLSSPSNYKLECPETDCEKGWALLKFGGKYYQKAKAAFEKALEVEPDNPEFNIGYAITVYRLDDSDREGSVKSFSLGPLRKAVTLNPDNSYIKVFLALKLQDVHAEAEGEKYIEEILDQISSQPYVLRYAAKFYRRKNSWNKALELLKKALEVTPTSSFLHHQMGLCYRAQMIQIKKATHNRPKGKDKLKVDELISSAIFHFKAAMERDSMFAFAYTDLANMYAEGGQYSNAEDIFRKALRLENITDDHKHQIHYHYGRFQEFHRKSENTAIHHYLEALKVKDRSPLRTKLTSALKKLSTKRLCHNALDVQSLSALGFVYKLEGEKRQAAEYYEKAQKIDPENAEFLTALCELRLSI", "experiment": "MST; apparent; replicates with and without 1 mM Mg2+ pooled; MST: PBS, 5% glycerol, 0.5 mM TCEP, 0.05% Tween20, +/-1 mM MgCl2 (K150M always with 1 mM MgCl2), 10 nM Cy5-RNA, 22 C, 10 min incubation; pH not stated"}, "[2]": {"target": "T2, IFIT5 Q41E/K150M/R253M (UniProt Q13325 1-482, Q41E;K150M;R253M)", "T2 sequence": "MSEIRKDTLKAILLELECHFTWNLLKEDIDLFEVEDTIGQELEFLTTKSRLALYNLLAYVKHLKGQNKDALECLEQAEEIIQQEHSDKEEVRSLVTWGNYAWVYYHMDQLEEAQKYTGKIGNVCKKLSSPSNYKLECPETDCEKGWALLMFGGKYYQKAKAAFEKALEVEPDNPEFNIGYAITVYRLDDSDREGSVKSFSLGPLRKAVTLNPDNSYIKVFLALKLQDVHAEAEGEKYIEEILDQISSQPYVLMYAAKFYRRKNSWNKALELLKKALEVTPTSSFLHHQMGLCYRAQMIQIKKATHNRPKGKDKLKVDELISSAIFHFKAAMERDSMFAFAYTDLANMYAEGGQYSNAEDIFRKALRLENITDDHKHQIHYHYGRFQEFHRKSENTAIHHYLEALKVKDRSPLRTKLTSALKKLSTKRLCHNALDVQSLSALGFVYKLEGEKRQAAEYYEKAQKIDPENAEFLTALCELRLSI", "experiment": "MST; apparent; replicates with and without 1 mM Mg2+ pooled; MST: PBS, 5% glycerol, 0.5 mM TCEP, 0.05% Tween20, +/-1 mM MgCl2 (K150M always with 1 mM MgCl2), 10 nM Cy5-RNA, 22 C, 10 min incubation; pH not stated"}, "[3]": {"target": "T1, IFIT5 WT", "experiment": "MST; apparent, single replicate; 1 mM Mg2+ (assignment by word order); MST: PBS, 5% glycerol, 0.5 mM TCEP, 0.05% Tween20, +/-1 mM MgCl2 (K150M always with 1 mM MgCl2), 10 nM Cy5-RNA, 22 C, 10 min incubation; pH not stated"}, "[4]": {"target": "T2, IFIT5 Q41E/K150M/R253M", "experiment": "MST; apparent, single replicate; 1 mM Mg2+ (assignment by word order); MST: PBS, 5% glycerol, 0.5 mM TCEP, 0.05% Tween20, +/-1 mM MgCl2 (K150M always with 1 mM MgCl2), 10 nM Cy5-RNA, 22 C, 10 min incubation; pH not stated"}, "[5]": {"target": "T3, IFIT5 K150M (UniProt Q13325 1-482, K150M)", "T3 sequence": "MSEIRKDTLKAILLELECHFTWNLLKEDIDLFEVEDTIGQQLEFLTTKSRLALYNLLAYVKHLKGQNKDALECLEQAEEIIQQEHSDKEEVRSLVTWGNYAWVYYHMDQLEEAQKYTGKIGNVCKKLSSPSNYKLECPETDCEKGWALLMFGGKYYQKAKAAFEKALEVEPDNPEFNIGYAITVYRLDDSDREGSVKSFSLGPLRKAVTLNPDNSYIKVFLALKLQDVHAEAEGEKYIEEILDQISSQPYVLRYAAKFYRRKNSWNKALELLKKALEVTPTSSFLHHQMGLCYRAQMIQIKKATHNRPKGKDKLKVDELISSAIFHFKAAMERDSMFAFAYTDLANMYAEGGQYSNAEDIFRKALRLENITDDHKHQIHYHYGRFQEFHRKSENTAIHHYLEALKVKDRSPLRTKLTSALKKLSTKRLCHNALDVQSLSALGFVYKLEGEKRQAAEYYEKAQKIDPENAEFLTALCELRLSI", "experiment": "MST; apparent; 1 mM Mg2+; MST: PBS, 5% glycerol, 0.5 mM TCEP, 0.05% Tween20, +/-1 mM MgCl2 (K150M always with 1 mM MgCl2), 10 nM Cy5-RNA, 22 C, 10 min incubation; pH not stated"}, "[6]": {"target": "T1, IFIT5 WT", "experiment": "MST; apparent, single replicate; no Mg2+ (assignment by word order); MST: PBS, 5% glycerol, 0.5 mM TCEP, 0.05% Tween20, +/-1 mM MgCl2 (K150M always with 1 mM MgCl2), 10 nM Cy5-RNA, 22 C, 10 min incubation; pH not stated"}, "[7]": {"target": "T2, IFIT5 Q41E/K150M/R253M", "experiment": "MST; apparent, single replicate; no Mg2+ (assignment by word order); MST: PBS, 5% glycerol, 0.5 mM TCEP, 0.05% Tween20, +/-1 mM MgCl2 (K150M always with 1 mM MgCl2), 10 nM Cy5-RNA, 22 C, 10 min incubation; pH not stated"}},
  "note": "Several values for one entry are separate records, joined by “and”; a condition that tells them apart may be missing. Identical values can stand only once.",
  "data": [
    {"binder": "AAAAAGGAAGGU (ssRNA, 5'-triphosphate)", "note": "[5'-ppp-AAAAAGGAAGGU-Cy5]", "values": [
      {"measurement": "Kd", "setting": "[1]", "result": 13.4, "unit": "nM"},
      {"measurement": "Kd", "setting": "[2]", "result": 1980, "unit": "nM"},
      {"measurement": "Kd", "setting": "[3]", "result": "12.7 nM and 13.7 nM and 23 nM"},
      {"measurement": "Kd", "setting": "[4]", "result": 2340, "unit": "nM"},
      {"measurement": "Kd", "setting": "[5]", "result": 204, "unit": "nM"},
      {"measurement": "Kd", "setting": "[6]", "result": 8.87, "unit": "nM"},
      {"measurement": "Kd", "setting": "[7]", "result": 1700, "unit": "nM"}
    ]}
  ]
}
